# In article PMC8034716:
# Target: HLA-A*0201
# Assay: T2 stabilization assay (BB7.2 anti-HLA-A2 staining)
# Conditions: peptide-pulsed T2 cells; parent: est. 100; read off a plot
row,Substance,percent of parent [%]
1,wild type p53 65-73 peptide (…) A5G,100
2,wild type p53 65-73 peptide (…) A6G,68
3,wild type p53 65-73 peptide (…) E4A,76
4,wild type p53 65-73 peptide (…) E4G,100
5,wild type p53 65-73 peptide (…) M2A,89
6,wild type p53 65-73 peptide (…) M2G,89
7,wild type p53 65-73 peptide (…) P3A,61
8,wild type p53 65-73 peptide (…) P3G,65
9,wild type p53 65-73 peptide (…) P7A,84
10,wild type p53 65-73 peptide (…) P7G,47
11,wild type p53 65-73 peptide (…) P8A,89
12,wild type p53 65-73 peptide (…) P8G,72
13,wild type p53 65-73 peptide (…) R1A,120
14,wild type p53 65-73 peptide (…) R1G,100
15,wild type p53 65-73 peptide (…) V9A,110
16,wild type p53 65-73 peptide (…) V9G,67
